Test results as given in the supplement of paper PMC9170038.

Test system: K4 kissing-loop RNA reporter
Assay: apparent KD of K4 kissing-loop reporter; higher = weaker reporter binding
Conditions: Eterna round: R107; input ligand: arginine 13.2 mM
Procedure: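 RNA-MaP round R107: designed RNA switches with theophylline, tryptophan, arginine or FMN aptamers are transcribed on-chip within common flanks. They are titrated with a labelled K4 kissing-loop RNA reporter in RNA-MaP buffer (100 mM Tris pH 7.5, 80 mM KCl, 4 mM MgCl2), without ligand or with the indicated ligand. Median apparent KD per design.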
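Also: bound reporter read as fluorescence of individual clusters on recovered sequencing chips by microscopy, with normalized cluster intensities fitted with a binding model.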

| Sequence | apparent KD of K4 kissing-loop reporter [µM] |
| --- | --- |
| AAGUGUGUGGCGGCCGCCACUAGAAUCCAGUGAUGUUGGAGAUAUCACGUAAGUGAUAUCCAACAUAGGACCGGGCCAUAUAGAA [Same State - Tryptophan B (Freestyle 12)] | 0.111 |
| AAUGGGUGAUAAGGAUAUCCACCUCACAAACCAAGAGUGAUGUUCGUUGGUCCAUGGACAAUAUGUGGAGAAGGUAUAGUGAUUA [theeternabot_exclusion_KL_FMN_B_48] | 0.853 |
| UGUGAGCUGUCGACAAAAGUCGACUAAAACGAGGAUAUGACGAAAGUCAGAAGGCGUCAAUAAUGGAGUGAUGUUCCUGCUCACU [FmnA 9 #SwitchBubble #K4Late] | 0.404 |
| GCCGCAAGGCUAGCAGCAAUAGGCGCUCGCUAGGAUAUCUGGAAACAGAGAAGGAGCUGGAGUGAUGUUUUACCUCCUUGUUAUU | 0.735 |
| GCAUCCAUGGCAGGAUAUAGGUUCGUGGAGUGAUGUUCCAUAGCCCGAGUGAUGUUCGUUAUCCGCCUAGAAGGGCCAUGGAUGC [whbob_Ex_FMNB__2th213] | 0.192 |
| AGGUCACCACUACAGUGAUGUUGUAGGGAGCAGGAUAUGCAGAAAUGCAGAAGGGCUCGCUCCCGGUGACCGAAUGAAACAUUCA [Omei KL FMN A SS A v6] | 0.258 |
| GUUACGCAUGGAAGGAGCGCAUGCUCAACAAUAAGCUCAGUGAUGUUGAGCAAAAUUAAAAUGCAGGUAGGUCGCCAUGUGUAAC [Ex Arginine B K4 28] | 0.519 |
| GGUAGCAUGGCGGCCGCCACUGAGGCCCUAUACGAGUCCUAAACAACCUAGUGAUGUUAGGAGUCCAGGACCGGGCCAUGCUACC | 0.175 |
| AAAAGCCUACAGGAUACCAGCCGAAUACUAAAAGGCUGGAGUGAUGUUCCAGCUUGCCGCGGCCCUUGGCAGCCUAGCUGGGUGA [Soatriti] | 0.258 |
| GCCAGAUAGACGGCCGCCACUUAUAAGUUUCAGUGAUGUUGGAACGGCAAAUGCCGAACACAAUAGAGGACCGGGUCAACUGGCG [Same State Tryptophan B GF 1] | 0.591 |
| CCAUCGCUAUUCGAUACCAGCUAAAUAUAAUAUAACCAGUGAUGUUGGUAUAUAAAUAUAAGCCCUUGGCAGCGAAUAGUGAUGG [Theophylline B K4 30] | 0.107 |
| AGAUCUGUAACAGAUACCAGAGGACGAUGAUCGGAUAGUGAUGUUAUCUAUCAGUCGUCGCUCCCUUGGCAGCUGUUACAGAUCA [Omei KL Theo B SS B v2] | 0.45 |
| UCGAAAUGCGACUCCUAGUUACACCGGGAAGGAGCGUGGAUAACCGCAGGUAGGUCGCCCGGAAGCCGGACCAGUGAUGUUGGUC [Exclusion Arginine A Gf 28] | 0.177 |
| AAAAUAACCCAGUGAUGUUGGUCUCCAGAUACCAGCGACGAAAGUCGCCCUUGGCAGCUGUGGACGUACAAAAUAAGUACGUCCU | 0.629 |
| UACAUUGCAGUCUUCUUCGUCCUAGAUGACUAGGAUAUCAGGAAACUGAGAAGGAGUCACUGCAGUGAUGUUGCAGCUAGGACGA [KL-SSFMN-A9] | 0.118 |
| GCUAGUUUGGAAGGAUAUUCGUGCGAUCAAGUCAAACUUUACUGAGGGCGUUUUGGAGUGAUGUUCGAAGAAGGUCCCUUACUUA [theeternabot_exclusion_KL_FMN_B_28] | 0.816 |
| ACUGAAAGAUCUGAUACCAGACUUUUUGUAUUUAUUAAAACUAGUGAUGUUAGUUUAUCUGUCCCUUGGCAGCAGUUUCUACAGA [JR_Nu_ExcTheophyB_Sub023] | 0.132 |

| Sequence | apparent KD of K4 kissing-loop reporter [µM] |
| --- | --- |
| CAUACGCAUGGAGGAUAUGAGAUUACUCAUAUUAUUUAAUAUUCUCAGUGAUGUUGAGAUAUAAACUCAGAAGGCCAUGUGUAUG [Ex FMN B 1] | 0.152 |
| GCGGCGGGCCAAGGAUAUAUUUUGGAGUGAUGUUGUUCAUUUAUUUGAGCUAGUGAUGUUGGUCGAAUAGAAGGUGGCCCGCCGC [whbob_Ex_FMNB__2th219] | 0.0294 |
| UGUAAGCGCGUAGAUACCAGCAGACGAGUGAUGUUCAAGAGAUUAAGGAAAAGAAAGUAAUGCCCUUGGCAGCUAAUCAUAAGCG [whbob_Ex_Theo_B_sa93] | 0.312 |
| GCCGUACGCAUGGAUACCAGUCUUAGAGUGAUGUUCUAAUCGAUUGCGCCUGGAUCAAUGGACCCUUGGCAGCCAUGCGUACGGC | 0.0973 |
| UUUCGGCUCUGAGGAUAUUCGGACAAAUAUAGUGAUGUUGUAUAAGGAGGAGGGUGUUGGCAGUGAGGAGAAGGCAGAGGAGGAU [#07 K4 FMN B Exclusion] | 0.208 |
| UUUUUGGAGAAUUAUAGUGAUGUUAUGAAGGAGGAUAUCUGGAGAUGGAGAAGGCCUAGUGGCUCAGGGAUGGAGGGUGGGUGGG [ExFMNA.Y] | 0.411 |
| CCAUUCUUUUACGAUACCAGUCUAAUAUAUUGAAUCAAAACCCUCGCCGAGUGAUGUUCGGACCCUUGGCAGCGUCUGCGAGAGG [xwxxtkmullin] | 0.542 |
| UGACUGGACUGAAGGAGCGCGAAACUCCUAGUGAUGUUAGGAUAACGAGACAAAGUCUCGACGCAGGUAGGUCGCAGUCUAGUCU | 0.0926 |
| AGAGUUAUGCGAGGAUAUGCGGUUAGUACUCAAAGAGUACUAACGCAGAGUGAUGUUCUGUGAAACGCAGAAGGUGCAUAACUCA [Omei KL FMN B SS B v3] | 0.216 |
| GGUAGCAUGAUGGAUACCAGUCCAAAUGGAGUGAUGUUCCAACAACAGGUUAGGCUGCUGGACCCUUGGCAGCCGUCAUGCUACC | 0.12 |
| CGGACGGUAUCGGCCGCCACUCUGAAGACAGUGAUGUUGUCCGUGCAGUAUUUAGGAAAGCCGCGGAGGACCGGGAUGCGUCACU [theeternabot_sameState_KL_Trp_B_48] | 0.15 |
| AGAUGACACGGAGGAUAUCCUAAUAUGGGUGAUGUUAGCGAUGUUGAAGGUGUAGUGAUGUUAUGCGGAGAAGGCCGUGUUGUUU [BDazzled - #22 - Exc. FMN B] | 0.0856 |
| AAACAUUGGUCGGAUACCAGCUGAUCGGAAACGAUCUUGCUGGAGUGAUGUUCCAAGUAAAGCCCUUGGCAGCCGACCGAUGAAA [MAT - Same State Theophlline B - Mod of Eli - D20] | 0.0504 |
| GGUAGUGCUAGCGAUACCAGUCAUAUCGCUCUGGAGUGAUGUUCCGGAACGUGCGGAGAAGACCCUUGGCAGCGCUUGACGGUGU [Exclusion Theophylline B GF5] | 0.234 |
| UGAUACCAGACGGCCGCCACUAGAGCUAGCAAAGCUAGCAAGUGAUGUUUGAGGAGUGAUGUUCCUAGGACCGGGUCUGGUAUCU [TrypBX 2 #Palindromic #SwitchBubble #StaticStem] | 0.0855 |
| GGAUAGGACACAGGAUAUGGGCUAGGCAAGAAUAACUUGUCUAGCAAAUCCAUGAGGAGUGAUGUUCCAGAAGGGUGUCCUAUCG [FmnBX 1 C11+G75] | 0.111 |

Same assay, conditions: Eterna round: R107; input ligand: none

| Sequence | apparent KD of K4 kissing-loop reporter [µM] |
| --- | --- |
| UGUUUUUACUGAAGGAGCGGCAAUUGAUACGUAGAUAUAGUGAUGUUAUAUAAGAUAGAGAGCCAGGUAGGUCGCAGAGUGUAUC [ExArgB.aB] | 0.207 |
| UUUAUAAAGUCGGCCGCCACUGGAUUUAUGUUUGUUUCGUCUGGAUCAAAGUGAUGUUUUGAGUCCAGGACCGGGACAUUUGUUA [whbob_Ex_Tryp_B_w38] | 0.0812 |
| UCGAACGAUGGAAGGAGCGCUCGUCAGUCCUGCGAGUGAUGUUCGUGGGUAAAUAGUCGCGAGCAGGUAGGUCGCCAUCUUGGGC [Reriat] | 0.151 |
| CCAUCCGAGUCGGCCGCCACUUUGAGUGAUGUUUGGAGUCUGAGUCAACAUAAAUACUUAGUUUAAAGGACCGGGACUUCGGAUG [theeternabot_exclusion_KL_Trp_B_7] | 1.02 |
| UGGAGUUGACGAAAAGUCAACUCCUGAGAUACCAGUGACGAAAGUCACCCUUGGCAGCUCACUCCCAGUGAUGUUGGUUCAUAAG [#04 K4 Theophylline A Same State] | 0.601 |
| GGCACGGUGACGCGGCUGCCGUGCGCUUGGGAGGAUAUGUUUCGUGACAGAAGGCCCAGUGAUGUUGGGUCUGUUCAAAAGGACU [Edmatianri] | 0.125 |
| UGACUGGAUGGAAGGAGCGCUAAACUCCUAGUGAUGUUAGGGACACGAGGCAAAGCCUCGAAGCAGGUAGGUCGCCAUCUAGUCU [FiskerMod 22 - Jieux - Same State - Arginine B] | 0.174 |
| ACAGGAUCGAAAGAUCCUGAGCAGUCAAACCGAGGACCGGUACGGCCGCCACUCGGAGUGAUGUUCCGAAGACUGCAAAAUAAAA [#SwitchBubble 1] | 1.12 |
| AGUAAUGAGUGAUGUUCAAUUAGUAAGGAUACCAGUAAUUCAAAAUGCCCUUGGCAGCUUAACGCUACCAAUAGAUUAAUAAUGG [First try - Theophylline A] | 0.119 |
| UAUUCUUAUCUUAGUUGAUUUCUAAUUAAACGAGGACCGGUACGGCCGCCACUCGGUUAUGAGUGAUGUUCAUGGAAUUACAUAA [JR_SSTryptoA_Sub020] | 0.413 |
| AAGUGUGUGGCGGCCGCCACUAGAAUCCAGUGAUGUUGGAGAUAUCACGUAAGUGAUAUCCAACAUAGGACCGGGCCAUAUAGAA [Same State - Tryptophan B (Freestyle 12)] | 0.0803 |
| AAUGGGUGAUAAGGAUAUCCACCUCACAAACCAAGAGUGAUGUUCGUUGGUCCAUGGACAAUAUGUGGAGAAGGUAUAGUGAUUA [theeternabot_exclusion_KL_FMN_B_48] | 1 |
| UGUGAGCUGUCGACAAAAGUCGACUAAAACGAGGAUAUGACGAAAGUCAGAAGGCGUCAAUAAUGGAGUGAUGUUCCUGCUCACU [FmnA 9 #SwitchBubble #K4Late] | 0.552 |
| GCCGCAAGGCUAGCAGCAAUAGGCGCUCGCUAGGAUAUCUGGAAACAGAGAAGGAGCUGGAGUGAUGUUUUACCUCCUUGUUAUU | 0.95 |
| GCAUCCAUGGCAGGAUAUAGGUUCGUGGAGUGAUGUUCCAUAGCCCGAGUGAUGUUCGUUAUCCGCCUAGAAGGGCCAUGGAUGC [whbob_Ex_FMNB__2th213] | 0.227 |
| AGGUCACCACUACAGUGAUGUUGUAGGGAGCAGGAUAUGCAGAAAUGCAGAAGGGCUCGCUCCCGGUGACCGAAUGAAACAUUCA [Omei KL FMN A SS A v6] | 0.318 |
| GUUACGCAUGGAAGGAGCGCAUGCUCAACAAUAAGCUCAGUGAUGUUGAGCAAAAUUAAAAUGCAGGUAGGUCGCCAUGUGUAAC [Ex Arginine B K4 28] | 0.576 |
| GGUAGCAUGGCGGCCGCCACUGAGGCCCUAUACGAGUCCUAAACAACCUAGUGAUGUUAGGAGUCCAGGACCGGGCCAUGCUACC | 0.254 |
| AAAAGCCUACAGGAUACCAGCCGAAUACUAAAAGGCUGGAGUGAUGUUCCAGCUUGCCGCGGCCCUUGGCAGCCUAGCUGGGUGA [Soatriti] | 0.507 |
| GCCAGAUAGACGGCCGCCACUUAUAAGUUUCAGUGAUGUUGGAACGGCAAAUGCCGAACACAAUAGAGGACCGGGUCAACUGGCG [Same State Tryptophan B GF 1] | 0.835 |
| CCAUCGCUAUUCGAUACCAGCUAAAUAUAAUAUAACCAGUGAUGUUGGUAUAUAAAUAUAAGCCCUUGGCAGCGAAUAGUGAUGG [Theophylline B K4 30] | 0.113 |
